Test results reported in patent US20030022292A1.

Biological target: CEACAM1 (carcinoembryonic antigen-related cellular adhesion molecule 1) on human CD4+ T lymphocytes and Jurkat cells (human) (UniProt P13688)
Test: cell-based or functional assay

Sequence of UniProt P13688 (P13688 35-526): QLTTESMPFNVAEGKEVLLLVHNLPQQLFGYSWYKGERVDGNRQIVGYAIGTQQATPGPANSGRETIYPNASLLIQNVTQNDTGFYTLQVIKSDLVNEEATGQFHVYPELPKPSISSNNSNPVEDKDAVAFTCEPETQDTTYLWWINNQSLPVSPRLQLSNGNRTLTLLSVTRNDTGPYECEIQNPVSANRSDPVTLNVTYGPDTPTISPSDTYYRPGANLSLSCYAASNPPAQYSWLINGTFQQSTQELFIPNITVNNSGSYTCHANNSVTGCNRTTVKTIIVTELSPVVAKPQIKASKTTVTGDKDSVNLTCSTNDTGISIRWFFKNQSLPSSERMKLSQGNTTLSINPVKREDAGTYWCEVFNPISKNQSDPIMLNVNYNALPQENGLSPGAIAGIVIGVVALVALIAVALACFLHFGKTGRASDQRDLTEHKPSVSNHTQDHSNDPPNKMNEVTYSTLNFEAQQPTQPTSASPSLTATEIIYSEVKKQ

Row | Substance | reduction of IL-2-dependent CD4+ T lymphocyte proliferation at MOI=50, relative to Opa50-expressing gonococci | reduction of IL-2-dependent CD4+ T lymphocyte proliferation at MOI=100, relative to Opa50-expressing gonococci | reduction of IL-2-dependent CD4+ T lymphocyte proliferation at MOI=200, relative to Opa50-expressing gonococci | lowest multiplicity of infection at which inhibition of Jurkat proliferation was apparent (MOI (bacteria/cell))
1 | Opa52 protein of Neisseria gonorrhoeae strain MS11, expressed on gonococcal strain N309 (ligand) | 34% | 51% | 76% | 
2 | Opa57 protein of Neisseria gonorrhoeae strain MS11, expressed on gonococcal strain N313 (ligand) |  |  |  | 25
